US20130089557A1 (SAMSUNG ELECTRONICS, published 2013)

Tests used:
[1] = target: c-Met on MKN45 gastric cancer cells and on Caki-1 cells (human, UniProt P08581 25-1390); test: cell-based or functional assay
[2] = target: T1, EEPSA peptide (SEQ ID NO: 82); test: SPR (Biacore), huAbF46 on CM5 chip, peptide injected
T1 peptide: EEPSA

[3] = target: T2, EAPSQ peptide (SEQ ID NO: 79); test: as above
T2 peptide: EAPSQ

[4] = target: T3, AAAAA peptide (SEQ ID NO: 77); test: as above
T3 peptide: AAAAA

[5] = target: T4, EEASQ peptide (SEQ ID NO: 80); test: as above
T4 peptide: EEASQ

[6] = target: T5, AEPSQ peptide (SEQ ID NO: 78); test: as above
T5 peptide: AEPSQ

[7] = target: T6, CSPQIEDPSQC (SEQ ID NO: 72); test: PEPSCAN peptide ELISA
T6 peptide: CSPQIEDPSQC
Procedure: (§1) For epitope mapping, PEPSCAN-based ELISA was performed using a total number of 529 linear and CLIPS peptides. The peptides were maintained at room temperature for 30 minutes by using a 5% blocking solution to provoke a reaction (4% ovalbumin, 5% horse serum, and 1% Tween 80). […] Thereafter, the resultant product was treated with rabbit-anti-sheep antibody (SIGMA) and washed with PBS, and the washed product was then treated with peroxidase-attached swine-anti-rabbit antibody (SIGMA) and washed with PBS. Then, the resultant product was treated with 2 ul/ml of peroxidase 2,2′-azino-di-3-ethylbenzthiazoline sulfonate (ABTS)(SIGMA) in 3% H₂O₂, and a color reaction was measured after 1 hour.

[8] = target: T7, CPQIEDPSQAC (SEQ ID NO: 73); test: PEPSCAN peptide ELISA
T7 peptide: CPQIEDPSQAC
Procedure: as §1

[9] = target: T8, CQIEDPSQAPC (SEQ ID NO: 74); test: PEPSCAN peptide ELISA
T8 peptide: CQIEDPSQAPC
Procedure: as §1

[10] = target: T9, CEDPSQAPDAC (SEQ ID NO: 76); test: PEPSCAN peptide ELISA
T9 peptide: CEDPSQAPDAC
Procedure: as §1

[11] = target: T10, CIEDPSQAPDC (SEQ ID NO: 75); test: PEPSCAN peptide ELISA
T10 peptide: CIEDPSQAPDC
Procedure: as §1

[12] = target: T11, FSPQIEDPSQCPDCVVSALGAKVL (SEQ ID NO: 71); test: PEPSCAN peptide ELISA
T11 construct: Peptide with the E168D mutation
T11 peptide: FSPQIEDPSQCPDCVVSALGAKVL
Procedure: as §1

[13] = target: T12, EEPAQ peptide (SEQ ID NO: 81); test: SPR (Biacore), huAbF46 on CM5 chip, peptide injected 0.39-100 nM
T12 peptide: EEPAQ

[14] = target: T13, EEPSQ peptide (SEQ ID NO: 3); test: as above
T13 construct: the range is one residue short
T13 peptide: EEPSQ

human c-Met protein [15] = target: T14, human c-Met protein (human, UniProt P08581 25-932, limits assumed); test: SPR (Biacore), against huAbF46 (Table 3)
T14 construct: also called c-Met antigen
T14 sequence (P08581 25-932 limits assumed): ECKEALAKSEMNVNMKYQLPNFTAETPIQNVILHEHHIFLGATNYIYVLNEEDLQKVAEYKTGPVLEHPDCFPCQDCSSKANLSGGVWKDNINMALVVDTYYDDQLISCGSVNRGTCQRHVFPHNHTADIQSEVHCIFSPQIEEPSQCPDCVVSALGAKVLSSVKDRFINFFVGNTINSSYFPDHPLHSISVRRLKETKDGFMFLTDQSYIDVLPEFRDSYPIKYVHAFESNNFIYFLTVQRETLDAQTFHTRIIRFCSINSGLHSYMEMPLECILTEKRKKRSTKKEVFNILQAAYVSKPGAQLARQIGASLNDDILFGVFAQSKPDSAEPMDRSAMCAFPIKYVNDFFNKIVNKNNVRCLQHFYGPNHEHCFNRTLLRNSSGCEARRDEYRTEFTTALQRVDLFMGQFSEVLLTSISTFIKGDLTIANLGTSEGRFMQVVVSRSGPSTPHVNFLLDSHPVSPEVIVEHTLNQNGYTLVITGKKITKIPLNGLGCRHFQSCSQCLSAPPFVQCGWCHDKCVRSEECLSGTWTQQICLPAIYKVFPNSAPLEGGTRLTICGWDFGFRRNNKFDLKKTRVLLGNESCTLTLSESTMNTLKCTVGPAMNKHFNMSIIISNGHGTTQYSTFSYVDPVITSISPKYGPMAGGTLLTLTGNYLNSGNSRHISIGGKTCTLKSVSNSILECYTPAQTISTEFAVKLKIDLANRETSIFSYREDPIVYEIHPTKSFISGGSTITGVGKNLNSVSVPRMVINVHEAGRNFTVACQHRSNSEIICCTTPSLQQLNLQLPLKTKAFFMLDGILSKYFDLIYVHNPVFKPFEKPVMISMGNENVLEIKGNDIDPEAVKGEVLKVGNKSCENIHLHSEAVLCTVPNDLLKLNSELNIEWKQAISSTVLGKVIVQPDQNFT
Procedure: Affinities of the 4 types of antibodies against c-Met antigen were measured by using a Biacore (GE healthcare). About 80 to 110 RU of each antibody was immobilized on a CM5 chip, and 9 different concentrations ranging from 0.39 nM to 100 nM of human c-Met protein, as an antigen, were injected at a rate of 30 ul/min to obtain kₒₙ values and koff values as shown in Table 3. Then, KD values were calculated based thereon.

human c-Met protein [16] = target: T14, human c-Met protein; test: method not described

c-Met on MKN45 gastric cancer cells and on Caki-1 cells, sequence (P08581 25-1390): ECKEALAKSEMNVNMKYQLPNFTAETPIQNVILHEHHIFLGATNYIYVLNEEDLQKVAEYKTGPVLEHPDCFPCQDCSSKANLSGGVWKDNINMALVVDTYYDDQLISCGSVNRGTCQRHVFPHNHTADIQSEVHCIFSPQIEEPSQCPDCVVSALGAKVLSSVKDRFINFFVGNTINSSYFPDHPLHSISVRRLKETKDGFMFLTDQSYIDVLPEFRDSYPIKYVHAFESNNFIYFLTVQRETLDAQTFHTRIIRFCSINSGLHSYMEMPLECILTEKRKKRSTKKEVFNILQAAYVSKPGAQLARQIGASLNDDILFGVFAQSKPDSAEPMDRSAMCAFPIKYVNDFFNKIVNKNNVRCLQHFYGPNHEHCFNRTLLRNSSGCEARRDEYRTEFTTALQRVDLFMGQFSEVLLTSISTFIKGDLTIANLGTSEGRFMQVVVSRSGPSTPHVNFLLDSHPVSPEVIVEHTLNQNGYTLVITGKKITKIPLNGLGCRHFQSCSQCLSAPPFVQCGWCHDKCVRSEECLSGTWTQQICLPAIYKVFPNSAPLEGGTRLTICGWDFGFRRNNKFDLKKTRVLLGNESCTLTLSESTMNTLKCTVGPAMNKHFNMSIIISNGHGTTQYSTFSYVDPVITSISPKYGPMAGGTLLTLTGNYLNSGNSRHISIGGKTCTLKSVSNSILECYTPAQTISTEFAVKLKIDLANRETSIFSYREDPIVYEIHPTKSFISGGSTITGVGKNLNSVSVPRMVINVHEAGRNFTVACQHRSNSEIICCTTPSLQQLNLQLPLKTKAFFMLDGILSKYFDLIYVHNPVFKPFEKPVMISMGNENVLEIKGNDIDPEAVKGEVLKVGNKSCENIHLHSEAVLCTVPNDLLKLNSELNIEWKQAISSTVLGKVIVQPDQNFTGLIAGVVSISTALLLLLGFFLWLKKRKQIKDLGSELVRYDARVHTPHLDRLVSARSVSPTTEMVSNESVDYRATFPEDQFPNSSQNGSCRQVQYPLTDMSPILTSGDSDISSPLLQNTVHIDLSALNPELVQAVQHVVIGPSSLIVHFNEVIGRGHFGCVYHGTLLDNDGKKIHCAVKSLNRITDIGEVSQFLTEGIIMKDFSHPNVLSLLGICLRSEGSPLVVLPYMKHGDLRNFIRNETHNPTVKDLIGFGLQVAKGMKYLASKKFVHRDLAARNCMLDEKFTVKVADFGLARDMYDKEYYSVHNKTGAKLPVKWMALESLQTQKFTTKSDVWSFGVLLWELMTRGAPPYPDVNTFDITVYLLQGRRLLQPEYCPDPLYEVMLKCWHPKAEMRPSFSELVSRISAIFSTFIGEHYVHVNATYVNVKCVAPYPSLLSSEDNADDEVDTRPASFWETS

B1: huAbF46-H4-A5 (antibody, V domains shown)
VH: EVQLVESGGGLVQPGGSLRLSCAASGFTFTDYYMSWVRQAPGKGLEWLGFIRNKANGYTTEYSASVKGRFTISRDNSKNTLYLQMNSLRAEDTAVYYCARDNWFAYWGQGTLVTVSS
VL: DIQMTQSPSSLSASVGDRVTITCKSSQSLLASGNQNNYLAWHQQKPGKAPKMLIIWASTRVSGVPSRFSGSGSGTDFTLTISSLQPEDFATYYCQQSYSRPFTFGQGTKVEIKR
For B1, the “degree of degradation of c-Met (total c-Met ELISA, MKN45 cells, 5 ug/ml antibody, 24 hours)” value (“degree of degradation of c-Met” below) [1] was about 28%.

B2: humanized antibody huAbF46 (H4-heavy chain and H4-light chain) (antibody, human IgG1, kappa, V domains shown)
VH: EVQLVESGGGLVQPGGSLRLSCAASGFTFTDYYMSWVRQAPGKGLEWLGFIRNKANGYTTEYSASVKGRFTISRDNSKNTLYLQMNSLRAEDTAVYYCARDNWFAYWGQGTLVTVSS
VL: DIQMTQSPSSLSASVGDRVTITCKSSQSLLASGNQNNYLAWHQQKPGKAPKMLIIWASTRVSGVPSRFSGSGSGTDFTLTISSLQPEDFATYYCQQSYSAPLTFGQGTKVEIKR
notes: also called humanized antibody AbF46
B2: no binding (tested: 100 nM to 0.39 nM of the peptides) [2]; no binding (tested: 100 nM to 0.39 nM of the peptides) [3]; no binding (tested: 100 nM to 0.39 nM of the peptides) [4]. B2: no binding (tested: 100 nM to 0.39 nM of the peptides) [5]; no binding (tested: 100 nM to 0.39 nM of the peptides) [6]; no binding (tested: 1 to 100 ug/ml of huAbF46 antibody) [7]. B2: no binding (tested: 1 to 100 ug/ml of huAbF46 antibody) [8]; no binding (tested: 1 to 100 ug/ml of huAbF46 antibody) [9]; no binding (tested: 1 to 100 ug/ml of huAbF46 antibody) [10]. The binding result [11] was “no binding (tested: 1 to 100 ug/ml of huAbF46 antibody)”, the binding result [12] was “no binding (tested: 1 to 100 ug/ml of huAbF46 antibody)” and the Kd [13] was 1.43 nM. It also gave a Kd [14] of 1.64 nM.

B3: huAbF46-H4-A1 (antibody, V domains shown)
VH: EVQLVESGGGLVQPGGSLRLSCAASGFTFTDYYMSWVRQAPGKGLEWLGFIRNKANGYTTEYSASVKGRFTISRDNSKNTLYLQMNSLRAEDTAVYYCARDNWFAYWGQGTLVTVSS
VL: DIQMTQSPSSLSASVGDRVTITCKSSQSLLASGNQNNYLAWHQQKPGKAPKMLIIWASTRVSGVPSRFSGSGSGTDFTLTISSLQPEDFATYYCQQSYSRPYTFGQGTKVEIKR
notes: IgG; also called IgG from clone L3-1
With B3 the “degree of degradation of c-Met” value [1] was about 37% and the “fold improvement of affinity” value (human c-Met protein [15]) was 37 times.

B4: huAbF46-H4-A3 (antibody, V domains shown)
VH: EVQLVESGGGLVQPGGSLRLSCAASGFTFTDYYMSWVRQAPGKGLEWLGFIRNKANGYTTEYSASVKGRFTISRDNSKNTLYLQMNSLRAEDTAVYYCARDNWFAYWGQGTLVTVSS
VL: DIQMTQSPSSLSASVGDRVTITCKSSQSLLASGNQNNYLAWHQQKPGKAPKMLIIWASTRVSGVPSRFSGSGSGTDFTLTISSLQPEDFATYYCAQSYSHPFSFGQGTKVEIKR
For B4, the “degree of degradation of c-Met” value [1] was about 28%.

B5: huAbF46-H4-A2 (antibody, V domains shown)
VH: EVQLVESGGGLVQPGGSLRLSCAASGFTFTDYYMSWVRQAPGKGLEWLGFIRNKANGYTTEYSASVKGRFTISRDNSKNTLYLQMNSLRAEDTAVYYCARDNWFAYWGQGTLVTVSS
VL: DIQMTQSPSSLSASVGDRVTITCKSSQSLLASGNQNNYLAWHQQKPGKAPKMLIIWASTRVSGVPSRFSGSGSGTDFTLTISSLQPEDFATYYCGQSYSRPLTFGQGTKVEIKR
notes: IgG; also called IgG from clone L3-2
With B5 the “degree of degradation of c-Met” value [1] was about 28% and the “fold improvement of affinity” value (human c-Met protein [15]) was 5 times.

B6: scFv of huAbF46 antibody (scFv)
scFv: EVQLVESGGGLVQPGGSLRLSCAASGFTFTDYYMSWVRQAPGKGLEWLGFIRNKANGYTTEYSASVKGRFTISRDNSKNTLYLQMNSLRAEDTAVYYCARDNWFAYWGQGTLVTVSSGLGGLGGGGSGGGGSGGSSGVGSDIQMTQSPSSLSASVGDRVTITCKSSQSLLASGNQNNYLAWHQQKPGKAPKMLIIWASTRVSGVPSRFSGSGSGTDFTLTISSLQPEDFATYYCQQSYSAPLTFGQGTKVEIKR
notes: 'VH-linker-VL' form; Tags or display fusion partner not described; also called wild-type antibody (scFv of huAbF46)
B6: binds (human c-Met protein [16]).
